The assay has as its target T1, FGFR1c ectodomain (Homo sapiens, UniProt P11362).
T1 construct: made in house; host or cells: E. coli
T1 sequence (P11362 142-365): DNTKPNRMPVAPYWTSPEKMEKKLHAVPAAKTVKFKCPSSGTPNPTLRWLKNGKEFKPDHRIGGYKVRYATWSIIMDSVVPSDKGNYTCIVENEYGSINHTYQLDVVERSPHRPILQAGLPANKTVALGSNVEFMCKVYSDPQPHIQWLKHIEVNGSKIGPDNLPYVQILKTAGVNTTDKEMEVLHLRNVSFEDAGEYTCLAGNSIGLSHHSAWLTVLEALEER
Put plainly: SPR: FGFR1c ectodomain passed over immobilized FGF23. The assay is classed as binding. The procedure: Surface plasmon resonance (SPR) spectroscopy experiments were performed on a Biacore 2000 instrument (Biacore AB), and FGF23-FGFR1c-Klotho interactions were studied at 25° C. in HBS-EP buffer (10 mM HEPES-NaOH, pH 7.4, 150 mM NaCl, 3 mM EDTA, 0.005% (v/v) polysorbate 20). Proteins were immobilized by amine coupling on flow channels of research grade CM5 chips (Biacore AB). Proteins were injected over a CM5 chip at a flow rate of 50 μl min^−1, and at the end of each protein injection (180 s), HBS-EP buffer (50 μl min^−1) was flowed over the chip to monitor dissociation for 180 s. The chip surface was then regenerated by injecting 50 μl of 2.0 M NaCl in 10 mM sodium acetate, pH 4.5. To control for nonspecific binding in experiments where Klotho ectodomain was immobilized on the chip, β-glucuronidase was coupled to the control flow channel of the chip (˜26-32 fmole/mm^2). […] The data were processed with BiaEvaluation software (Biacore AB). For each protein injection over a Klotho chip, the nonspecific responses from the β-glucuronidase control flow channel were subtracted from the responses recorded for the Klotho flow channel. Similarly, for each protein injection over a FGF chip, the nonspecific responses from the FHF1B control flow channel were subtracted from the responses recorded for the FGF flow channel. […]
On the technique in general: Surface plasmon resonance follows binding to a sensor surface in real time, without labels.

B1: FGF23^28-251: human FGF23 (A28 to I251), bioactive full-length ligand expressed in E. coli (protein, listed as Homo sapiens)
chain: ASPLLGSSWGGLIHLYTATARNSYHLQIHKNGHVDGAPHQTIYSALMIRSEDAGFVVITGVMSRRYLCMDFRGNIFGSHYFDPENCRFQHQTLENGYDVYHSPQYHFLVSLGRAKRAFLPGMNPPPYSQFLSRRNEIPLIHFNTPIPRRHTRSAEDDSERDPLNVLKPRARMTPAPASCSQELPSAEDNSPMASDPLGVVRGGRVNTHAGGTGPEGCRPFAKFI
For the molecule B1, the “binding of FGF23 to FGFR1c ectodomain alone” value is recorded as “poor binding”.
